From patent publication US20240116985A1 (published 2024)
Starred links: 1 amine or outer side, 2 acyl side, 3 side chain; linkers in the order of their positions; H or OH if unused. Positions of bridges follow the written chain, without caps; N, C: chain ends. Non-standard residues stand in square brackets, D forms with d. Primed or numbered codes have the meaning given here. PyrS2″ = (S)-3-amino-1-((pent-4-en-1-yloxy)carbonyl)pyrrolidine-3-carboxylic acid (stapling residue), C=CCCCOC(=O)N1CC[C@@](N[*:1])(C(=O)[*:2])C1; B5(4) = 2,2-bis(4-pentenyl)glycine = 2-amino-2-(pent-4-en-1-yl)hept-6-enoic acid (stitching residue), C=CCCCC(CCCC=C)(N[*:1])C(=O)[*:2]; (Me2NPrPip)GlnR″ = Glu side chain amide with 4-(3-(dimethylamino)propyl)piperazine, CN(C)CCCN1CCN(C(=O)CC[C@H](N[*:1])C(=O)[*:2])CC1; TfeGA = (S)-2-amino-3-((carboxymethyl)(2,2,2-trifluoroethyl)amino)propanoic acid, O=C([C@H](CN(CC(=O)[*:3])CC(F)(F)F)N[*:1])[*:2]; PyrS2 = (S)-3-amino-1-((pent-4-en-1-yloxy)carbonyl)pyrrolidine-3-carboxylic acid, C=CCCCOC(=O)N1CC[C@@](N[*:1])(C(=O)[*:2])C1; B5(3) = 2,2-bis(4-pentenyl)glycine (stitching residue), C=CCCCC(CCCC=C)(N[*:1])C(=O)[*:2]; B5(28) = 2,2-bis(4-pentenyl)glycine, C=CCCCC(CCCC=C)(N[*:1])C(=O)[*:2]; Phe(3-COOH) = N[C@@H](Cc1cccc(C(=O)O)c1)C(=O)O; 2F3MeF = Cc1cccc(C[C@H](N[*:1])C(=O)[*:2])c1F; Phe(2-CF3) = N[C@@H](Cc1ccccc1C(F)(F)F)C(=O)O; Bta = N[C@@H](Cc1csc2ccccc12)C(=O)O; αAllylPro = C=CC[C@@]1(C(=O)O)CCCN1; isoindolineGlnR = not defined here; tBuAla = CC(C)(C)C[C@H](N)C(=O)O; 3Thi = N[C@@H](Cc1ccsc1)C(=O)O; 2F3MeF(3) = Phe analogue; Abu = CC[C@H](N)C(=O)O; Aib = CC(C)(N)C(=O)O

T1: B-cat-Halo (beta-catenin HaloTag NanoBRET construct expressed in HEK293 cells) (UniProt P35222 1-781)
T1 sequence (looked up): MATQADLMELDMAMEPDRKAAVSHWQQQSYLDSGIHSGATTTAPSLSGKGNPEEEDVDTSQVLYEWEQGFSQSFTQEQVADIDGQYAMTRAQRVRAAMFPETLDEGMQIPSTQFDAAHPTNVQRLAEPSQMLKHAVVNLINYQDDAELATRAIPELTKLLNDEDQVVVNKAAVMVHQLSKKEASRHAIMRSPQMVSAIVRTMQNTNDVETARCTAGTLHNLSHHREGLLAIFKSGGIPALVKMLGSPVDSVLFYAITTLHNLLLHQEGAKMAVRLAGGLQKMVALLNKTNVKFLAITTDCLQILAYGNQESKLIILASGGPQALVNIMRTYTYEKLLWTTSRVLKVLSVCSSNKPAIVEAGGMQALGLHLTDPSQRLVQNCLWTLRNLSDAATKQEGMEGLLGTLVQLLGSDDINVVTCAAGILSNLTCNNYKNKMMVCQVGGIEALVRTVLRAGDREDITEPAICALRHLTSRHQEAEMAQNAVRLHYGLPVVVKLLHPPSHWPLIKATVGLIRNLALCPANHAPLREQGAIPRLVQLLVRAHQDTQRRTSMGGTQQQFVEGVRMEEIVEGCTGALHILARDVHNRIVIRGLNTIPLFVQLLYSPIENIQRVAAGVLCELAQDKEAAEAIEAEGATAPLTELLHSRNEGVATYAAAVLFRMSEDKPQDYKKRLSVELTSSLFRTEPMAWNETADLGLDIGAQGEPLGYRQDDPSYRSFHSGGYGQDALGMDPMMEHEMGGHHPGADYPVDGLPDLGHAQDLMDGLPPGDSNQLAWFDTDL

T2: Bcat-Halo (UniProt P35222 1-781)
T2 sequence (looked up): T1 sequence (looked up)


target: T1, B-cat-Halo (beta-catenin HaloTag …); experiment: cell-based or functional assay

Binder | NanoBRET Abs IC50 [µM]
Ac-[αAllylPro]D[tBuAla][B5(3)]D[Phe(3-COOH)]QAFL[PyrS2″][Phe(2-CF3)][2F3MeW]A-NH2 (staple 1-4, 4-11) [Ac-PL3-Asp-Npg-B5-Asp-3COOHF-Gln-Ala-Phe-Leu-PyrS2-2F3MeF-2F3MeW-Ala-NH2] | > 20
Ac-[αAllylPro]D[tBuAla][B5(3)]D[Phe(3-COOH)]AAFL[PyrS2″][Phe(2-CF3)][SbMe2NapA]Q-NH2 (staple 1-4, 4-11) [Ac-PL3-Asp-Npg-B5-Asp-3COOHF-Ala-Ala-Phe-Leu-PyrS2-2F3MeF-SbMe2NapA-Gln-NH2] | 16.5
Ac-[αAllylPro]D[tBuAla][B5(3)]D[Phe(3-COOH)]QAFL[PyrS2″][Phe(2-CF3)][RbMe2NapA]A-NH2 (staple 1-4, 4-11) [Ac-PL3-Asp-Npg-B5-Asp-3COOHF-Gln-Ala-Phe-Leu-PyrS2-2F3MeF-RbMe2NapA-Ala-NH2] | 6.5
Ac-[αAllylPro]D[tBuAla][B5(3)]D[Phe(3-COOH)]AAFL[PyrS2″][Phe(2-CF3)][2F3MeW]Q-NH2 (staple 1-4, 4-11) [Ac-PL3-Asp-Npg-B5-Asp-3COOHF-Ala-Ala-Phe-Leu-PyrS2-2F3MeF-2F3MeW-Gln-NH2] | > 20
Ac-[αAllylPro]D[tBuAla][B5(3)]D[Phe(3-COOH)]QAFL[PyrS2″][2F3MeF(3)][SbMe2NapA]A-NH2 (staple 1-4, 4-11) [Ac-PL3-Asp-Npg-B5-Asp-3COOHF-Gln-Ala-Phe-Leu-PyrS2-2F3MeF-SbMe2NapA-Ala-NH2] | > 20
Ac-[αAllylPro]D[tBuAla][B5(3)]NT[Aib]AFN[PyrS2″][3Thi][Bta]K-NH2 (staple 1-4, 4-11) [Ac-PL3-Asp-Npg-B5-Asn-Thr-Aib-Ala-Phe-Asn-PyrS2-3Thi-BztA-Lys-NH2] | > 20
Ac-[αAllylPro]D[tBuAla][B5(3)]NT[Aib]AFN[PyrS2″][3Thi][Bta]Y-NH2 (staple 1-4, 4-11) [Ac-PL3-Asp-Npg-B5-Asn-Thr-Aib-Ala-Phe-Asn-PyrS2-3Thi-BztA-Tyr-NH2] | > 20

The next lines start with the values.

NanoBRET Abs IC50 [µM] | Binder
2.1 | Ac-[αAllylPro]D[tBuAla][B5(3)]D[TfeGA]AAFL[PyrS2″][3Thi][Bta][(NHEt)GlnR]A-NH2 (staple 1-4, 4-11) [Ac-PL3-Asp-Npg-B5-Asp-TfeGA-Ala-Ala-Phe-Leu-PyrS2-3Thi-BztA-[NHEt]GlnR-Ala-NH2]
1.8 | Ac-[αAllylPro]D[tBuAla][B5(3)]D[Phe(3-COOH)]AAF[Abu][PyrS2″][2F3MeF][Bta][(NHEt)GlnR]A-NH2 (staple 1-4, 4-11) [Ac-PL3-Asp-Npg-B5-Asp-3COOHF-Ala-Ala-Phe-Abu-PyrS2-2F3MeF-BztA-[NHEt]GlnR-Ala-NH2]

target: T2, Bcat-Halo; experiment: cell-based or functional assay

NanoBRET Abs IC50 [µM] | Binder
17.7 | Ac-[αAllylPro]D[tBuAla][B5(4)]D[Phe(3-COOH)][(Me2NPrPip)GlnR″]AFL[PyrS2″][2F3MeF][Bta]A-NH2 (staple 1-4, 4-11) [I-2323]
2.7 | Ac-[αAllylPro]D[tBuAla][B5(28)]D[Phe(3-COOH)][isoindolineGlnR]AFL[PyrS2][2F3MeF][Bta]A-NH2 (staple 1-4, 4-11; reading uncertain) [I-2320]
37 | Ac-[αAllylPro]D[tBuAla][B5(3)]N[Phe(3-COOH)]AAFN[PyrS2″][3Thi][Bta]Q-NH2 (staple 1-4, 4-11) [I-2335]
18.8 | Ac-[αAllylPro]D[tBuAla][B5(4)]D[Phe(3-COOH)][(4Pippip)GlnR]AFL[PyrS2″][2F3MeF][Bta]A-NH2 (staple 1-4, 4-11) [I-2317]
